Measured values from patent US20120021972A1 (CADILA HEALTHCARE, published 2012).
Starred links: 1 amine or outer side, 2 acyl side, 3 side chain; linkers in the order of their positions; H or OH if unused. Non-standard residues stand in square brackets, D forms with d. No end group written: not given here. *: point of attachment. NMe2F‑APPA = N-methyl-2-amino-5-(2-fluorophenyl)pentanoic acid, CN([C@@H](CCCc1ccccc1F)C(=O)[*:2])[*:1]; AMCB = 2-amino-5-(4-chloro-2-methylphenyl)pentanoic acid, Cc1cc(Cl)ccc1CCC[C@H](N[*:1])C(=O)[*:2]; 2CF3,4F‑APPA = 2-amino-5-(4-fluoro-2-(trifluoromethyl)phenyl)pentanoic acid; 2F,4CF3‑APPA = 2-amino-5-(2-fluoro-4-(trifluoromethyl)phenyl)pentanoic acid; Bip(2'-Et-4'-OMe) = CCc1cc(OC)ccc1-c1ccc(C[C@H](N)C(=O)O)cc1; Leu(5,5,5,5',5',5'-F6) = N[C@@H](CC(C(F)(F)F)C(F)(F)F)C(=O)O; 2Cl‑APPA = 2-amino-5-(2-chlorophenyl)pentanoic acid; 2F‑APPA = 2-amino-5-(2-fluorophenyl)pentanoic acid; αMePhe(2-F) = C[C@](N)(Cc1ccccc1F)C(=O)O; NMeBip(OMe) = N-methylated Bip(OMe); hhPhe = N[C@@H](CCCc1ccccc1)C(=O)O; aThr = C[C@H](O)[C@H](N)C(=O)O; CNB = not defined here; Aib = CC(C)(N)C(=O)O; Moc = COC(=O)*

What was measured:
human GLP-1 receptor = human GLP-1 receptor (human, UniProt P43220 24-463); test: cell-based or functional assay
human GLP-1 receptor, sequence (P43220 24-463): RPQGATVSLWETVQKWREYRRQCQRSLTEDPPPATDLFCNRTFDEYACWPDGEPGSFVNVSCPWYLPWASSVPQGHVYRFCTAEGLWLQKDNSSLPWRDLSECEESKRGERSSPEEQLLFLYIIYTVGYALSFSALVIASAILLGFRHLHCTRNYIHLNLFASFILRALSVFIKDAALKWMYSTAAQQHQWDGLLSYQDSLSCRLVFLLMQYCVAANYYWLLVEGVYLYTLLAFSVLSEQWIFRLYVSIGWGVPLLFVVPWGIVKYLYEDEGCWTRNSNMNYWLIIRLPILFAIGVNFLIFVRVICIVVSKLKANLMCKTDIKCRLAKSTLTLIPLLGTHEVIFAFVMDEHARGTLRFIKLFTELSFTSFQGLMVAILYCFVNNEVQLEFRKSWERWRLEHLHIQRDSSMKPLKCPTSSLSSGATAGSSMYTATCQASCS

human glucagon receptor = human glucagon receptor (human, UniProt P47871 26-477); test: cell-based or functional assay

Row | cAMP release, % activity, 1 nM (human GLP-1 receptor) [%] | cAMP release, % activity, 10 nM (human GLP-1 receptor) [%] | cAMP release, % activity, 100 nM (human GLP-1 receptor) [%] | cAMP release, % activity, 1 µM (human GLP-1 receptor) [%] | cAMP release, % activity, 10 µM (human GLP-1 receptor) [%] | inhibition of cAMP production, 1 nM (human glucagon receptor) [pmol/ml/µg prt] | inhibition of cAMP production, 10 nM (human glucagon receptor) [pmol/ml/µg prt] | inhibition of cAMP production, 100 nM (human glucagon receptor) [pmol/ml/µg prt] | inhibition of cAMP production, 1 µM (human glucagon receptor) [pmol/ml/µg prt] | inhibition of cAMP production, 10 µM (human glucagon receptor) [pmol/ml/µg prt] | Binder
1 | 78 | 99 | 99 | 99 | 99 |  |  |  |  |  | H[Aib][CNB]GTFTSD[Bip(2'-Et-4'-OMe)][2Cl‑APPA] (reading uncertain) [Seq. ID. No. 82: H-Aib-(CNB)-GTFTSD-Bip(OMe)-(2Cl-APPA)]
2 | 66 | 97 | 99 | 99 | 99 |  |  |  |  |  | H[Aib][CNB]GTFTSD[Bip(2'-Et-4'-OMe)][2CF3,4F‑APPA] (reading uncertain) [Seq. ID. No. 80: H-Aib-(CNB)-GTFTSD-Bip(OMe)-(2CF3, 4F-APPA)]
3 |  |  |  |  |  | 5 | 2 | 0 | 0 | 0 | H[Aib][Leu(5,5,5,5',5',5'-F6)]GT[αMePhe(2-F)][aThr]SD[Bip(2'-Et-4'-OMe)][hhPhe] [Seq. ID. No. 225: H-Aib-(Hfl)-GT-(α-Me-2F-Phe)-T(allo)-SD-Bip(OMe)-(APPA)]
4 | 51 | 86 | 91 | 99 | 99 |  |  |  |  |  | Moc-H[Aib]QG[aThr][αMePhe(2-F)][aThr]SD[NMeBip(OMe)][NMe2F‑APPA] [Seq. ID. No. 140: CH3OCO-H-Aib-QG-T(allo)-(α-Me-2F-Phe)-T(allo)-SD-((NMe)Bip(OMe))-((NMe)(2F-APPA))]
5 | 46 | 85 | 90 | 99 | 99 |  |  |  |  |  | Ac-H[Aib]QG[aThr][αMePhe(2-F)][aThr]SD[Bip(2'-Et-4'-OMe)][hhPhe] (also: reduced (CH2) bond between 10 and 11) [Seq. ID. No. 185: CH3CO-H-Aib-QG-T(allo)-(α-Me-2F-Phe)-T(allo)-SD-Bip(OMe)-(CH2)-(APPA)]
6 | 41 | 82 | 87 | 95 | 98 |  |  |  |  |  | Ac-H[Aib]QG[aThr][αMePhe(2-F)][aThr]SD[Bip(2'-Et-4'-OMe)][hhPhe] [Seq. ID. No. 101: CH3CO-H-Aib-QG-T(allo)-(α-Me-2F-Phe)-T(allo)-SD-Bip(OMe)-(APPA)]
7 | 69 | 98 | 99 | 99 | 99 |  |  |  |  |  | H[Aib][CNB]GTFTSD[Bip(2'-Et-4'-OMe)][2F,4CF3‑APPA] (reading uncertain) [Seq. ID. No. 81: H-Aib-(CNB)-GTFTSD-Bip(OMe)-(2F, 4CF3-APPA)]
8 | 99 | 99 | 99 | 99 | 99 |  |  |  |  |  | HAQGTFTSD[Bip(2'-Et-4'-OMe)][AMCB] [Seq. ID. No. 16: HAQGTFTSD-Bip(OMe)-(AMCB)]
9 | 41 | 82 | 87 | 95 | 98 |  |  |  |  |  | H[Aib][CNB]G[aThr][αMePhe(2-F)][aThr]SD[Bip(2'-Et-4'-OMe)][hhPhe] (reading uncertain; also: reduced (CH2) bond between 10 and 11) [Seq. ID. No. 190: H-Aib-(CNB)-G-T(allo)-(α-Me-2F-Phe)-T(allo)-SD-Bip(OMe)-(CH2)-(APPA)]
10 | 40 | 81 | 89 | 96 | 99 |  |  |  |  |  | H[Aib][CNB]G[aThr][αMePhe(2-F)][aThr]SD[Bip(2'-Et-4'-OMe)][2F‑APPA] (reading uncertain; also: thioamide bonds between residues 9-10 and 10-11) [Seq. ID. No. 180: H-Aib-(CNB)-G-T(allo)-(α-Me-2F-Phe)-T(allo)-SD-(C═S)-Bip(OMe)-(C═S)-(2F-APPA)]
